The supplement of paper PMC10724198
± gives the standard deviation of the averaged measurements.

Legend:
[1] = system: Saccharomyces cerevisiae; test: protein stability index of tFT-peptide fusion (C-terminal peptide) (PSI (0-1 scale)); higher = more stable (slower turnover); details: genetic background: wild type; temperature: 30 C
[2] = system: Saccharomyces cerevisiae; test: as above
Protocol: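 MPS profiling in S. cerevisiae of the tFT-X12 degron library: putative degron peptides plus stable controls, 12 aa, fused to the C-terminus of a sfGFP-mCherry timer. Cells are FACS-sorted into 8 mCherry/sfGFP bins and deep-sequenced. PSI runs from 0 (unstable) to 1 (stable). Backgrounds are wild type, das1Δ and doa10Δ at 30 °C, and wild type, das1Δ, cdc34-1 and cdc53-1 at 37 °C; 2-3 technical replicates each.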

[3] = genetic background: cdc34-1, temperature: 37 C
[4] = genetic background: cdc53-1, temperature: 37 C
[5] = genetic background: das1 deletion, temperature: 30 C
[6] = genetic background: das1 deletion, temperature: 37 C
[7] = genetic background: doa10 deletion, temperature: 30 C
[8] = genetic background: wild type, temperature: 30 C
[9] = genetic background: wild type, temperature: 37 C
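Note: PSI is a weighted mean of sequencing reads over stability bins, variants kept only with over 10 reads, mCherry proximal and sfGFP distal, peptide attached via GGGS linker.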

Row | Sequence | protein stability index [1] | protein stability index [2, 3] | protein stability index [2, 4] | protein stability index [2, 5] | protein stability index [2, 6] | protein stability index [2, 7] | protein stability index [2, 8] | protein stability index [2, 9]
1 | VVIWGMLLCGLG | 0.44 ± 0.029 | 0.447 ± 0.0096 | 0.502 ± 0.009 | 0.353 ± 0.029 | 0.539 ± 0.026 | 0.326 ± 0.015 | 0.348 ± 0.018 | 0.487 ± 0.016
2 | VVTICVASWSGL | 0.42 ± 0.0091 | 0.521 ± 0.038 | 0.573 ± 0.011 | 0.352 ± 0.017 | 0.54018 ± 4.7e-05 | 0.362 ± 0.029 | 0.36 ± 0.027 | 0.532 ± 0.012
3 | VVTVCIIRLAWG | 0.367 ± 0.036 | 0.219 ± 0.0046 | 0.315 ± 0.056 | 0.215 ± 0.025 | 0.386 ± 0.014 | 0.189 ± 0.013 | 0.225 ± 0.018 | 0.342 ± 0.019
4 | VVVLRRVIEVMQ | 0.342 ± 0.0062 | 0.327 ± 0.015 | 0.37 ± 0.025 | 0.256 ± 0.03 | 0.448 ± 0.013 | 0.199 ± 0.0065 | 0.253 ± 0.027 | 0.413 ± 0.012
5 | VVVRFCLGICFC | 0.388 ± 0.011 | 0.36066 ± 0.00017 | 0.408 ± 0.013 | 0.301 ± 0.022 | 0.438 ± 0.021 | 0.265 ± 0.0087 | 0.288 ± 0.017 | 0.41 ± 0.012
6 | VWAWAVVVFVVL | 0.241 ± 0.009 | 0.196 ± 0.054 | 0.343 ± 0.0075 | 0.205 ± 0.02 | 0.379 ± 0.017 | 0.171 ± 0.01 | 0.2 ± 0.035 | 0.385 ± 0.046
7 | VWEKGVCGRMVG | 0.703 ± 0.0081 | 0.676 ± 0.015 | 0.7689 ± 0.0024 | 0.652 ± 0.021 | 0.744 ± 0.037 | 0.639 ± 0.012 | 0.6609 ± 0.0066 | 0.7276 ± 0.0072
8 | VWSFFTSFIRYI | 0.169 ± 0.028 | 0.5614 ± 0.0036 | 0.647 ± 0.018 | 0.6542 ± 0.0065 | 0.752 ± 0.041 | 0.106 ± 0.0018 | 0.109 ± 0.022 | 0.114 ± 0.0081
9 | VWVISLCIGGGG | 0.312 ± 0.013 | 0.297 ± 0.0044 | 0.369 ± 0.015 | 0.24 ± 0.028 | 0.405 ± 0.011 | 0.213 ± 0.025 | 0.225 ± 0.021 | 0.3796 ± 0.0035
10 | VWVLLCKYVILL | 0.218 ± 0.0091 | 0.228 ± 0.034 | 0.3521 ± 0.0031 | 0.237 ± 0.036 | 0.457 ± 0.0046 | 0.139 ± 0.021 | 0.145 ± 0.014 | 0.268 ± 0.023
11 | VWWGVGVWLLVG | 0.147 ± 0.04 | 0.104 ± 0.025 | 0.176 ± 0.02 | 0.242 ± 0.015 | 0.369 ± 0.011 | 0.0694 ± 0.016 | 0.0673 ± 0.018 | 0.0755 ± 0.036
12 | VYVVCFRLGCWV | 0.297 ± 0.036 | 0.222 ± 0.0066 | 0.321 ± 0.013 | 0.199 ± 0.035 | 0.39 ± 0.0064 | 0.172 ± 0.0025 | 0.2 ± 0.022 | 0.371 ± 0.0082
13 | WAFRLWWFFCLV | 0.375 ± 0.034 | 0.402 ± 0.048 | 0.452 ± 0.02 | 0.437 ± 0.022 | 0.579 ± 0.067 | 0.277 ± 0.01 | 0.257 ± 0.015 | 0.273 ± 0.0095
14 | WALPRILFLRLT | 0.169 ± 0.028 | 0.118 ± 0.074 | 0.157 ± 0.016 | 0.359 ± 0.043 | 0.415 ± 0.0039 | 0.103 ± 0.00013 | 0.0657 ± 0.0088 | 0.0911 ± 0.021
15 | WDSCVGRRGIVA | 0.4869 ± 0.0015 | 0.559 ± 0.025 | 0.63 ± 0.021 | 0.402 ± 0.035 | 0.62 ± 0.025 | 0.388 ± 0.013 | 0.42 ± 0.021 | 0.6038 ± 0.0016
16 | WFGGVRVPRHVV | 0.455 ± 0.032 | 0.651 ± 0.034 | 0.709 ± 0.027 | 0.668 ± 0.018 | 0.7484 ± 0.0044 | 0.394 ± 0.024 | 0.448 ± 0.018 | 0.645 ± 0.026
17 | WFLWWCVCLFVF | 0.307 ± 0.0073 | 0.312 ± 0.015 | 0.314 ± 0.03 | 0.304 ± 0.023 | 0.403 ± 0.018 | 0.2527 ± 0.00072 | 0.255 ± 0.012 | 0.299 ± 0.0032
18 | WFWTFIWLIMDD | 0.439 ± 0.0064 | 0.435 ± 0.049 | 0.501 ± 0.044 | 0.388 ± 0.016 | 0.521 ± 0.025 | 0.399 ± 0.027 | 0.41 ± 0.039 | 0.504 ± 0.043
19 | WGFLRVMVDIEL | 0.252 ± 0.016 | 0.146 ± 0.014 | 0.223 ± 0.1 | 0.198 ± 0.024 | 0.32581 ± 9.3e-05 | 0.164 ± 0.0075 | 0.188 ± 0.023 | 0.303 ± 0.017
20 | WGRTIGATFTGR | 0.595 ± 0.15 | 0.698 ± 0.029 | 0.779 ± 0.0021 | 0.644 ± 0.024 | 0.748 ± 0.0085 | 0.669 ± 0.01 | 0.685 ± 0.013 | 0.746 ± 0.019

Row | Sequence | protein stability index [1] | protein stability index [2, 3] | protein stability index [2, 4] | protein stability index [2, 5] | protein stability index [2, 6] | protein stability index [2, 7] | protein stability index [2, 8] | protein stability index [2, 9]
21 | WILSIVVWGKRV | 0.188 ± 0.068 | 0.2245 ± 0.0016 | 0.363 ± 0.068 | 0.231 ± 0.025 | 0.433 ± 0.026 | 0.0761 ± 0.025 | 0.114 ± 0.017 | 0.209 ± 0.019
22 | WMSVKLLTLRLC | 0.199 ± 0.0094 | 0.302 ± 0.091 | 0.357 ± 0.014 | 0.438 ± 0.04 | 0.551 ± 0.019 | 0.108 ± 0.031 | 0.105 ± 0.017 | 0.124 ± 0.0049
23 | WPRLSHIASFLA | 0.459 ± 0.025 | 0.675 ± 0.039 | 0.724 ± 0.038 | 0.682 ± 0.021 | 0.729 ± 0.01 | 0.26889 ± 7.6e-05 | 0.326 ± 0.021 | 0.509 ± 0.0095
24 | WRFFLLLFFFGF | 0.465 ± 0.026 | 0.493 ± 0.0066 | 0.536 ± 0.024 | 0.44 ± 0.04 | 0.601 ± 0.045 | 0.425 ± 0.0095 | 0.428 ± 0.024 | 0.531 ± 0.012
25 | WRIDVTIVCLGY | 0.3 ± 0.03 | 0.157 ± 0.03 | 0.256 ± 0.042 | 0.19 ± 0.033 | 0.3084 ± 0.0029 | 0.169 ± 0.01 | 0.202 ± 0.029 | 0.294 ± 0.019
26 | WSCGRVWQRFCD | 0.7065 ± 0.0045 | 0.675 ± 0.019 | 0.74 ± 0.01 | 0.674 ± 0.018 | 0.718 ± 0.039 | 0.678 ± 0.018 | 0.631 ± 0.014 | 0.711 ± 0.016
27 | WSSAHVAWCYTT | 0.304 ± 0.013 | 0.619 ± 0.026 | 0.723 ± 0.021 | 0.5991 ± 0.0031 | 0.7298 ± 0.0027 | 0.1926 ± 0.00045 | 0.217 ± 0.022 | 0.42 ± 0.0059
28 | WTILTVMFCSYI | 0.275 ± 0.026 | 0.312 ± 0.011 | 0.396 ± 0.014 | 0.276 ± 0.026 | 0.418 ± 0.031 | 0.282 ± 0.0044 | 0.261 ± 0.022 | 0.377 ± 0.019
29 | WVDVAGIVAVAG | 0.522 ± 0.036 | 0.526 ± 0.021 | 0.55 ± 0.022 | 0.421 ± 0.026 | 0.5809 ± 0.0037 | 0.387 ± 0.0085 | 0.419 ± 0.016 | 0.5495 ± 0.003
30 | WWGIVIVGGLGC | 0.489 ± 0.051 | 0.526 ± 0.0069 | 0.566 ± 0.019 | 0.423 ± 0.019 | 0.5691 ± 0.00075 | 0.384 ± 0.02 | 0.404 ± 0.011 | 0.564 ± 0.024
31 | YAFTCFLLVVAP | 0.237 ± 0.013 | 0.172 ± 0.0073 | 0.23 ± 0.011 | 0.167 ± 0.021 | 0.302 ± 0.011 | 0.1642 ± 0.0014 | 0.16 ± 0.015 | 0.259 ± 0.022
32 | YFFGWSVSLLIL | 0.184 ± 0.019 | 0.133 ± 0.014 | 0.251 ± 0.039 | 0.192 ± 0.035 | 0.322 ± 0.0091 | 0.108 ± 0.015 | 0.124 ± 0.021 | 0.2397 ± 0.0019
33 | YFLAMFIISGGV | 0.478 ± 0.073 | 0.371 ± 0.032 | 0.435 ± 0.032 | 0.28 ± 0.034 | 0.4798 ± 0.0021 | 0.248 ± 0.011 | 0.263 ± 0.042 | 0.443 ± 0.031
34 | YILPTPTVISLA | 0.337 ± 0.029 | 0.262 ± 0.025 | 0.271 ± 0.006 | 0.249 ± 0.034 | 0.3667 ± 0.0033 | 0.211 ± 0.0069 | 0.256 ± 0.021 | 0.326 ± 0.01
35 | YLGPHLRWARCV | 0.254 ± 0.015 | 0.495 ± 0.018 | 0.715 ± 0.02 | 0.662 ± 0.027 | 0.768 ± 0.025 | 0.1228 ± 0.00053 | 0.125 ± 0.016 | 0.183 ± 0.033
36 | YLSLPSSIFLCF | 0.422 ± 0.085 | 0.501 ± 0.022 | 0.504 ± 0.0066 | 0.461 ± 0.018 | 0.59 ± 0.019 | 0.498 ± 0.024 | 0.38 ± 0.015 | 0.5422 ± 0.0047
37 | YLTLAGFPLNLF | 0.469 ± 0.041 | 0.666 ± 0.014 | 0.7399 ± 0.0022 | 0.649 ± 0.017 | 0.762 ± 0.0092 | 0.273 ± 0.0065 | 0.314 ± 0.017 | 0.531 ± 0.011
38 | YNNKITRYRRDS | 0.52 ± 0.082 | 0.654 ± 0.053 | 0.731 ± 0.034 | 0.661 ± 0.055 | 0.752 ± 0.0077 | 0.388 ± 0.012 | 0.375 ± 0.024 | 0.612 ± 0.0082
39 | YRNRKMYCITNC | 0.423 ± 0.014 | 0.682 ± 0.03 | 0.737 ± 0.017 | 0.636 ± 0.038 | 0.743 ± 0.018 | 0.207 ± 0.044 | 0.26 ± 0.017 | 0.51 ± 0.058
